In PMC4660254:

Target: Mud C-terminal coiled-coil domain (Mud^CC) (Drosophila)
Test: SEC

With “Mud C-terminal coiled-coil domain (Mud^CC) (domain or fragment)” the stoichiometry N was 3.
